Holding throughout (test): filter binding
In series [1] the target is T1, CYT-18 NTDs (Neurospora crassa) (UniProt P12063).
T1 sequence: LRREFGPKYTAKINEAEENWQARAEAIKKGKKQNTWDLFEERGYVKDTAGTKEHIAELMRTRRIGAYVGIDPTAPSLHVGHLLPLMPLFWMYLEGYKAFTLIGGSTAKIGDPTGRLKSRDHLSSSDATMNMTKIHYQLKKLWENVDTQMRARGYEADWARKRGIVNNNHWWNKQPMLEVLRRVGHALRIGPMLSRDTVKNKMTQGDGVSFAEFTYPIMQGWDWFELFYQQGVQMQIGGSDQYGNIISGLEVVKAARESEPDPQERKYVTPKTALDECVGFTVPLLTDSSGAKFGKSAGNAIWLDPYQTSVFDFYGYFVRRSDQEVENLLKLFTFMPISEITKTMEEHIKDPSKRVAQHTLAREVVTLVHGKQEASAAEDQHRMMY
As to conditions: 100 mM KCl, 5 mM MgCl2, 20 mM Tris-HCl pH 7.5, 5 mM DTT, 0.1 mg/ml BSA, 10% glycerol, 5 pM RNA, 30 min, 25C or 37C, nitrocellulose/nylon filter.

Series [2] has as its target T2, Sc CTD (Saccharomyces cerevisiae) (UniProt P48527).
T2 sequence: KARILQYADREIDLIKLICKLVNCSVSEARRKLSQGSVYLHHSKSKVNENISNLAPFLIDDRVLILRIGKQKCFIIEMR
As to conditions: 25C; n=1.8; 100 mM KCl, 5 mM MgCl2, 20 mM Tris-HCl pH 7.5, 5 mM DTT, 0.1 mg/ml BSA, 10% glycerol, 5 pM RNA, 30 min, 25C or 37C; nitrocellulose/nylon filter.

Series [3] concerns Sc mtTyrRS (Saccharomyces cerevisiae). As to conditions: 100 mM KCl, 5 mM MgCl2, 20 mM Tris-HCl pH 7.5, 5 mM DTT, 0.1 mg/ml BSA, 10% glycerol, 5 pM RNA, 30 min, 25C or 37C; nitrocellulose/nylon filter.

As usually defined, the Kd is a measure of binding affinity in units of concentration. A low value points to higher affinity. “Ll.LtrB group II intron RNA (dORF, branch-point nucleotide deleted)”: the dissociation constant Kd in series [1] and in series [3] was 0.44 µM throughout. The K half in series [1] (25C, n=1.6) was determined as 240 nM; in series [2], 110 nM.

Regarding Nc ND1m group I intron RNA, the Kd in series [1] (25C, low end of stated range, strongest group I intron) stood at 0.2 µM; in series [1] (37C, low end of stated range, strongest group I intron), 0.44 µM.

Consider Nc mt LSU group I intron RNA, for which the Kd in series [1] (25C, high end of stated range, weakest group I intron) is 0.59 µM; in series [1] (37C, high end of stated range, weakest group I intron), 0.74 µM; in series [3], 0.43 µM.

Source of the values: paper PMC4275181.
